Experimental findings from patent publication US7172865B2, “Rapid and sensitive assay for the detection and quantification of coregulators of nucleic acid binding factors” (Saint Louis University, priority 2001, dated 2007) are described below.

Entries after “also recorded” stand apart in the source; their conditions may differ.

One assay deals with CAP7/CAP8/CAP9 construct. Briefly: CAP assay variant with DNA linked by a long flexible linker. The class given is binding, E. coli. The note with it: 75 nM CAP. The text has this: The properties of the assay illustrated in FIG. 1 depend upon the total concentration of the nucleic acid components. By covalently linking the two DNA duplexes—i.e., the components of the assay—by a long flexible linker, the assay becomes independent of DNA concentration, within a range of detectability of fluorescence signal and within a range of concentration required for efficient protein binding. FIG. 11 illustrates the design this variant of the assay for CAP detection. The nucleic acid components of the assay were covalently linked during oligonucleotide synthesis by introducing 12 moieties of the Spacer 18 phosphoramidate (Glen Research, Sterling, Va.), the structure of which is shown in FIG. 11B. The addition of 12 units of Spacer 18 results in a distance of ˜270 Å between the linked oligonucleotides. […]
FIG. 12 illustrates the enhanced performance of the variation of the invention depicted in FIG. 11. […] The kinetics of CAP induced fluorescence quenching was also studied to determine the incubation time necessary for the completion of the assay (FIG. 12B). In this experiment, the fluorescence intensity of 50 nM of the CAP7/CAP8/CAP9 construct was monitored as a function of time at 520 nm with the excitation wavelength set at 490 nm. At the time indicated by the arrow in FIG. 12B, 75 nM CAP protein was added and the monitoring of the fluorescence signal was resumed. […]

Assay [1] deals with TRP2/TRP3 and TRP1/TRP4 duplexes. Description: two-color simultaneous detection, fluorescein-labeled TrpR constructs. The class given is binding. Particulars: excitation 490 nm, one protein only. An excerpt:
The compatibility of the assays described in the instant invention with a variety of fluorescence probes emitting at different wavelengths allows for the designing of variations in which two or more proteins may be detected simultaneously. Nucleic acid constructs specific for each of the proteins to be detected may be labeled with probes that emit light at different wavelengths. In this example, the reaction mixture contained nucleic acid constructs labeled with 7-diethylaminocoumarin-3-carboxylic acid for detecting CAP protein (described in EXAMPLE 2) and nucleic acid constructs labeled with fluorescein for detecting TrpR protein (described in EXAMPLE 6). Specifically, 100 nM CAP5/CAP3, 120 nM CAP1/CAP4, 100 nM TRP2/TRP3, and 120 nM TRP1/TRP4 duplexes were present in the reaction mixture.
The fluorescence spectra with the excitation at 433 nm (excitation of 7-diethylaminocoumarin-3-carbo acid, FIG. 17A) and with the excitation at 490 nm (excitation of fluorescein, FIG. 17B) were recorded in the absence of the proteins (curves 1), in the presence of CAP only (curves 2), in the presence of TrpR only (curves 3), and in the presence of both CAP and TrpR (curves 4). In the presence of only CAP there was no change in the fluorescein signal (FIG. 17B, curve 2) whereas about 60% quenching of the 7-diethylaminocoumarin-3-carbox acid signal was observed (FIG. 17A, curve 2). […]

In assay [2] the test system is consensus CAP site split between CAP1/CAP4 and CAP2/CAP3 duplexes. Description: CAP detection by fluorescence quenching, fluorescein/dabcyl-labeled half-site duplexes. The class given is binding, E. coli. The text has this: A 38 bp DNA sequence corresponding to a consensus CAP site (Ebright, R. H., Ebright, Y. W. & Gunasakera, A. Nucleic Acids Res. 17, 10295–10305, 1989) was used as a basis for designing oligonucleotides necessary for preparing the CAP assay reagents according to the scheme illustrated in FIG. 1A. FIG. 3 illustrates the details of the design used. The following four oligonucleotides were synthesized using standard phosphoramidate automated oligonucleotide synthesis (F=dT-fluorescein; D=dT-dabcyl):
The fluorescence donor (fluorescein) and the fluorescence acceptor (dabcyl) were introduced into DNA fragments using commercially available dT-fluorescein and dT-dabcyl (Glen Research, Sterling, Va.) , wherein dT stands for deoxythymidine. […] The fractions containing the oligonucleotides were dried in a vacuum centrifuge concentrator and subsequently dissolved in 50 μl of water. […] The CAP1 oligonucleotide (SEQ ID NO:1) was hybridized with CAP4 oligonucleotide (SEQ ID NO:4) to generate the CAP1/CAP4 duplex and CAP2 oligonucleotide (SEQ ID NO:2) was hybridized with CAP3 oligonucleotide (SEQ ID NO:3) to generate the CAP2/CAP3 duplex. […] The excitation wavelength was at 490 nm and the emission was recorded from 500 to 650 nm.
FIG. 4B illustrates changes in fluorescence observed upon the addition of CAP protein. The spectrum of 50 nM of the CAP1/CAP4 duplex and 50 nM of the CAP2/CAP3 duplex was recorded (curve 1). CAP protein was added at 75 nM and after 15 minutes of incubation the spectrum was recorded (curve 2). A major quenching of fluorescence of approximately 50% of the control signal intensity was observed, which is consistent with the prediction that in the presence of CAP protein the association between the CAP1/CAP4 and CAP2/CAP3 duplexes is facilitated and that the fluorescein (fluorescent donor) present in the CAP2/CAP3 duplex is brought into close proximity to the dabcyl (fluorescent acceptor) present in the CAP1/CAP4 duplex, which results in the quenching of fluorescence emission due to FRET between the fluorescein and dabcyl.
FIG. 6 illustrates the change in fluorescence observed upon addition of increasing amounts of CAP protein in the assay. The experiments were performed under the same conditions as those for the experiment described above and in FIG. 4. Fluorescence quenching increased proportionally with the increase of CAP concentration until a saturation of the signal occurred at ˜150 nM protein.
The kinetics of CAP induced fluorescence quenching was also studied to determine the time required for completion of the assay (FIG. 7). […] At the time indicated by the arrow in FIG. 7, 100 nM CAP protein was added and monitoring of the fluorescence signal was resumed.

B1: CAP: bacterial transcription activator from E. coli which binds DNA in a sequence specific, cAMP-dependent manner (protein, UniProt P0ACJ8 2-210, looked up)
DNA-binding transcriptional …: VLGKPQTDPTLEWFLSHCHIHKYPSKSTLIHQGEKAETLYYIVKGSVAVLIKDEEGKEMILSYLNQGDFIGELGLFEEGQERSAWVRAKTACEVAEISYKKFRQLIQVNPDILMRLSAQMARRLQVTSEKVGNLAFLDVTGRIAQTLLNLAKQPDAMTHPDGMQIKITRQEIGQIVGCSRETVGRILKMLEDQNLISAHGKTIVVYGTR
With B1, in the assay with CAP7/CAP8/CAP9 construct, the “time for completion of the reaction” value was at most 20 s. The “quenching of the fluorescence signal” value in the assay with CAP7/CAP8/CAP9 construct (50 nM construct, 200 μM cAMP) is around 70%. Moreover, in assay [1], the “quenching of the fluorescein signal” value is “no change”. Moreover, the “protein concentration at saturation of the quenching signal” value in assay [2] (50 nM duplexes) is around 150 nM. Besides, the quenching of fluorescence entry in assay [2] (75 nM CAP, 15 minutes, 50 nM of each duplex, 200 μM cAMP) is reported as “approximately 50%”. Also, the “time for the reaction to go to completion” value in assay [2] (100 nM CAP, emission 520 nm) was “approximately 15 minutes”. Further, the “change in fluorescence upon addition of CAP” value in assay [2] (in the absence of cAMP) is reported as “No change in fluorescence; also recorded: does not produce a change in fluorescence signal intensity”.
